# Values quoted from earlier work in PMC9027846.
# Molecular target: Plasmin (Homo sapiens) (UniProt P00747)
# Test: BLI
# Chain of UniProt P00747 (P00747 581-810): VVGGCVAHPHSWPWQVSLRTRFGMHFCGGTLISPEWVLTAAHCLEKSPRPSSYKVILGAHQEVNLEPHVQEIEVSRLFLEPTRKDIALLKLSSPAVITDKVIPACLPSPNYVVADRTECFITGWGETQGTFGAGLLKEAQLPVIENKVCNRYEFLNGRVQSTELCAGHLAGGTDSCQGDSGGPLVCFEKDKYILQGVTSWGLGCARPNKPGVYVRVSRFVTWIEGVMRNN
substance,measurement,value
AaTI (from UniProt Q177W0),Kd,62.8 nM
